# Reference: CN116284353A (HUASONG SHANGHAI BIOMEDICAL TECH CO LTD, dated 2023)
# T1: EV A71 VLP (Enterovirus A71, UniProt Q66478 2-862)
# T1 construct: Multi-subunit particle
# T1 sequence: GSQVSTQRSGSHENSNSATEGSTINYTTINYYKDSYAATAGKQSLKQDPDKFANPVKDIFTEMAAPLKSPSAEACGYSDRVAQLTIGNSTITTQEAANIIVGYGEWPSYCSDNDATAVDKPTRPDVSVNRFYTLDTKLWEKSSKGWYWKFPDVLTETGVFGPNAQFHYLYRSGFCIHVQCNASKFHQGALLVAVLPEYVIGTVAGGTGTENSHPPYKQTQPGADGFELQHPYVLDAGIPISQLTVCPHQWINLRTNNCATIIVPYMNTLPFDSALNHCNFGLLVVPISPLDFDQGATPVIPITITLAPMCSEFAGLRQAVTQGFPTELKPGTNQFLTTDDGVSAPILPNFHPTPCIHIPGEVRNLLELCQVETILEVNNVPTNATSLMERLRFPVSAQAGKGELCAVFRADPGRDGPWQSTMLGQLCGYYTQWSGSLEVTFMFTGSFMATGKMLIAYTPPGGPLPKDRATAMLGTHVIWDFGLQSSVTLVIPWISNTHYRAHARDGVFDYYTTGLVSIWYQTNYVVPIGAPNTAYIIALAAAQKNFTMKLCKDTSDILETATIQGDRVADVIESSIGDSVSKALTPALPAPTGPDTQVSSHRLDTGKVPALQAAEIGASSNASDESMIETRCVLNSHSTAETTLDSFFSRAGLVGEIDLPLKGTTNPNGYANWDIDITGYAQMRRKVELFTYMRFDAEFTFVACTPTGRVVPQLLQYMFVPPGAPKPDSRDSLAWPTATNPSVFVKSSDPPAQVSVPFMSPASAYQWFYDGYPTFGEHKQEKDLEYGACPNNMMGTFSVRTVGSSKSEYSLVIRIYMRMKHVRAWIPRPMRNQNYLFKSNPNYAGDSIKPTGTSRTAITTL
# B1: 单克隆抗体3C4 (antibody, mouse IgG1, kappa, V domains shown)
# VH: QVTLKESGPGILQPSQTLSLTCSFSGFSLSTSGMGVSWIRQPSGKGLEWLAHIWWDDDKRYNPALKSRLTISKDTSNNQVFLRIASVDTADTATYYCVRIGGYFWGQGTSVTVSS
# VL: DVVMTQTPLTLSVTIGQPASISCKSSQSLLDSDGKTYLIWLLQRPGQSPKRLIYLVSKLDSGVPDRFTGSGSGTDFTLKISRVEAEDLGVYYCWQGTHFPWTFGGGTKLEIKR
# notes: Mouse IgG1 kappa; also called 3C4单抗; 杂交瘤细胞株3C4
# Target: T1, EV A71 VLP
# Experiment: Western blot on denatured VLP
binder,measurement,value
B1,binding result,no binding (tested: 1μg/mL)
